Key:
[1] = molecular target: NKG2A on primary human NK cells (human) (UniProt P26715); test: cell-based or functional assay
[2] = molecular target: human NKG2A and human CD94 expressed on transiently transfected CHO-S cells (human) (UniProt Q13241); test: blocking of PE-conjugated HLA-E pentamer binding to transiently transfected CHO-S cells, flow cytometry (percentage binding) [panel A hNKG2A]
[3] = molecular target: cynomolgus NKG2A and cynomolgus CD94 expressed on transiently transfected CHO-S cells (cynomolgus) (UniProt Q68VD2); test: blocking of PE-conjugated HLA-E pentamer binding to transiently transfected CHO-S cells, flow cytometry (percentage binding) [panel B cNKG2A]
[4] = molecular target: cynomolgus NKG2C and cynomolgus CD94 expressed on transiently transfected CHO-S cells (cynomolgus); test: blocking of PE-conjugated HLA-E pentamer binding to transiently transfected CHO-S cells, flow cytometry (percentage binding) [cont.), panel D cNKG2C]
I168S (Homo sapiens) = test: flow cytometry, CHO-S cells transiently transfected with NKG2A variant and CD94, AF647 goat anti-human IgG secondary (MFI) [cont.), panel monalizumab analogue (IgG4]
I168S (Homo sapiens), sequence (P26715 whole entry I168S): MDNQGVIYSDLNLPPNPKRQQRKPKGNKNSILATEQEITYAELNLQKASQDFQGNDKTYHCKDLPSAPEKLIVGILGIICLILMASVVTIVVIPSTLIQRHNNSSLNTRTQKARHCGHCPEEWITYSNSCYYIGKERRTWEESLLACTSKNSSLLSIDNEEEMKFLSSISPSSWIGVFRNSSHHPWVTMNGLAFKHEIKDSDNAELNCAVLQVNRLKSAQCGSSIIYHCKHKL

[5] = molecular target: human NKG2A M189I / human CD94 heterodimer on CHO-S cells (human) (UniProt Q13241); test: as above
human NKG2A M189I / human CD94 heterodimer on CHO-S cells (human), sequence (chain, as listed by the source M189I M189I, chain 1 of 2): as the sequence (P26715 whole entry I168S) above, with S168I, M189I counted along it
human NKG2A M189I / human CD94 heterodimer on CHO-S cells (human), sequence (Q13241 whole entry, chain 2 of 2): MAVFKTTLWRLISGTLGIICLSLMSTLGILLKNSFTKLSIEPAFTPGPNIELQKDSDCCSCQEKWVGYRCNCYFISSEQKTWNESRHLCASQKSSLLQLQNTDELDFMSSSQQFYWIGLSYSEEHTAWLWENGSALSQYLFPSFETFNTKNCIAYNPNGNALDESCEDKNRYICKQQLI

[6] = molecular target: human NKG2A S167A+I168S+S170L / human CD94 heterodimer on CHO-S cells (human) (UniProt Q13241); test: as above
human NKG2A S167A+I168S+S170L / human CD94 heterodimer on CHO-S cells (human), sequence (chain, as listed by the source S167A I168S S170L S167A I168S S170L, chain 1 of 2): as the sequence (P26715 whole entry I168S) above, with S167A, S170L counted along it
human NKG2A S167A+I168S+S170L / human CD94 heterodimer on CHO-S cells (human), sequence (Q13241 whole entry, chain 2 of 2): as the sequence (Q13241 whole entry, chain 2 of 2) above

[7] = molecular target: human NKG2A S170L / human CD94 heterodimer on CHO-S cells (human) (UniProt Q13241); test: as above
human NKG2A S170L / human CD94 heterodimer on CHO-S cells (human), sequence (chain, as listed by the source S170L S170L, chain 1 of 2): as the sequence (P26715 whole entry I168S) above, with S168I, S170L counted along it
human NKG2A S170L / human CD94 heterodimer on CHO-S cells (human), sequence (Q13241 whole entry, chain 2 of 2): as the sequence (Q13241 whole entry, chain 2 of 2) above

[8] = molecular target: human NKG2A and human CD94 expressed on transiently transfected CHO-S cells (human) (UniProt Q13241); test: as above
[9] = molecular target: cynomolgus NKG2A and cynomolgus CD94 expressed on transiently transfected CHO-S cells (cynomolgus) (UniProt Q68VD2); test: flow cytometry, transiently transfected CHO-S cells, AF647 goat anti-human IgG secondary (MFI) [cont.), panel monalizumab analogue (IgG1-LALA]
[10] = molecular target: cynomolgus NKG2C and cynomolgus CD94 expressed on transiently transfected CHO-S cells (cynomolgus); test: as above
[11] = molecular target: human NKG2A and human CD94 expressed on transiently transfected CHO-S cells (human) (UniProt Q13241); test: as above

human NKG2A and human CD94 expressed on transiently transfected CHO-S cells (human), sequence (chain, as listed by the source, chain 1 of 2): as the sequence (P26715 whole entry I168S) above, with S168I counted along it
human NKG2A and human CD94 expressed on transiently transfected CHO-S cells (human), sequence (Q13241 whole entry, chain 2 of 2): as the sequence (Q13241 whole entry, chain 2 of 2) above
NKG2A on primary human NK cells (human), sequence (P26715 whole entry): as the sequence (P26715 whole entry I168S) above, with S168I counted along it

IC50 (read off the curve) [2] [ng/mL] | IC50 (read off the curve) [3] [ng/mL] | IC50 (read off the curve) [4] [ng/mL] | EC50 (read off the curve) (I168S (Homo sapiens)) [ng/mL] | EC50 (read off the curve) [5] [ng/mL] | EC50 (read off the curve) [6] [ng/mL] | EC50 (read off the curve) [7] [ng/mL] | EC50 (read off the curve) [8] [ng/mL] | EC50 (read off the curve) [9] [ng/mL] | EC50 (read off the curve) [10] [ng/mL] | EC50 (read off the curve) [11] [ng/mL] | Substance | EC50 (ug/mL) of induced NK cell cytotoxicity, median (n = 6) [1] [µg/mL]
200 | 500 | 800 | 2 | 2 | 3 | 2 | 2 |  |  |  | Monalizumab Analogue (IgG4-S228P) (antibody) | 0.89
 |  |  |  |  |  |  |  | 10 | 20 | 8 | monalizumab analogue (IgG1-LALA) (antibody) | 
